Results reported in publication PMC12340942.

Target: RSV postfusion F (Flys-GCN without the StrepII-tag) (respiratory syncytial virus (RSV))
Assay: cryo-EM structure

RSV postfusion F (Flys-GCN without the StrepII-tag) (domain or fragment)
stoichiometry N: 3
